The values that follow come from publication doi:10.1101/2022.08.02.502557.

The target in the assay is Trimeric LHCII complexes (the major antenna complex of photosystem II) (spinach). The assay is described as follows: native gel or EMSA.

The substance “Trimeric LHCII complexes (the major antenna complex of photosystem II)” displayed a stoichiometry N of 3.

One may read the stoichiometry N as the number of molecules, sites or subunits per partner or assembly.
